Results reported in IntAct's records for PubMed 20798051.

Molecular target: fgfr4_human FGFR4 (UniProt P22455)
Sequence of UniProt P22455 (P22455 whole entry, looked up): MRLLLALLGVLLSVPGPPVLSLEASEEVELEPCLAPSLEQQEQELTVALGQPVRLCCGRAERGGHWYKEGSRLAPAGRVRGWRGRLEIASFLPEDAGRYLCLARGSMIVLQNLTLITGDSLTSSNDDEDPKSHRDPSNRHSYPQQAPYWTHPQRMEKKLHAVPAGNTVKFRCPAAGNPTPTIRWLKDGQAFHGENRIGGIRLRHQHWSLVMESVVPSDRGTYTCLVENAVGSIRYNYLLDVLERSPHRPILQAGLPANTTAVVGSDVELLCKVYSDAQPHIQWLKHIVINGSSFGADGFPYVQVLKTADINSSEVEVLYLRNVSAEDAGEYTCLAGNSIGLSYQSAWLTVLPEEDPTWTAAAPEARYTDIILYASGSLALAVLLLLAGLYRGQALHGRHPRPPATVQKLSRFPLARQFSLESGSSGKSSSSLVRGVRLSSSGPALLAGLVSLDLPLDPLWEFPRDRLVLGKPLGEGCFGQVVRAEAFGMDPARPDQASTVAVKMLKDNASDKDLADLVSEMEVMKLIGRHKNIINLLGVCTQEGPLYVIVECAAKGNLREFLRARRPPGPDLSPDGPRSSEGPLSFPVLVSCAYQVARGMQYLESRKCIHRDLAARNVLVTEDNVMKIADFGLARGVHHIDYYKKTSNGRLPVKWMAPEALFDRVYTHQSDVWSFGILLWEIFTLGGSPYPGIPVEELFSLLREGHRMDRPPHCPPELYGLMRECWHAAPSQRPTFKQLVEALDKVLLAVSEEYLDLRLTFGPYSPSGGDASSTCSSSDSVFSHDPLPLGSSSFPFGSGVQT

Substance | effect of a mutation on the interaction
Matrix metalloproteinase-14 (Homo sapiens) (from UniProt P50281) E240A | decreasing interaction
Matrix metalloproteinase-14 (Homo sapiens) (from UniProt P50281) Y573F | decreasing interaction
